Data published in paper PMC9599842 (2022).

Legend:
[1] = biological target: HcAb.RR359.D107A; assay: BLI
[2] = biological target: HcAb.RR359.L110A; assay: BLI

koff [1]: 0.00135 s⁻¹
koff [2]: 0.00425 s⁻¹
B1: mEGFR-His recombinant protein (receptor)
chain: LEEKKVCQGTSNRLTQLGTFEDHFLSLQRMYNNCEVVLGNLEITYVQRNYDLSFLKTIQEVAGYVLIALNTVERIPLENLQIIRGNALYENTYALAILSNYGTNRTGLRELPMRNLQEILIGAVRFSNNPILCNMDTIQWRDIVQNVFMSNMSMDLQSHPSSCPKCDPSCPNGSCWGGGEENCQKLTKIICAQQCSHRCRGRSPSDCCHNQCAAGCTGPRESDCLVCQKFQDEATCKDTCPPLMLYNPTTYQMDVNPEGKYSFGATCVKKCPRNYVVTDHGSCVRACGPDYYEVEEDGIRKCKKCDGPCRKVCNGIGIGEFKDTLSINATNIKHFKYCTAISGDLHILPVAFKGDSFTRTPPLDPRELEILKTVKEITGFLLIQAWPDNWTDLHAFENLEIIRGRTKQHGQFSLAVVGLNITSLGLRSLKEISDGDVIISGNRNLCYANTINWKKLFGTPNQKTKIMNNRAEKDCKAVNHVCNPLCSSEGCWGPEPRDCVSCQNVSRGRECVEKCNILEGEPREFVENSECIQCHPECLPQAMNITCTGRGPDNCIQCAHYIDGPHCVKTCPAGIMGENNTLVWKYADANNVCHLCHANCTYGCAGPGLQGCEVWPSGPKIPS
